This data set relates to ATP. Description: switch fluorescence ratio, 500 uM ATP over buffer (Cy3 cluster intensity, sum of 5 cycles each) (fold (ratio)); higher = stronger signal-on switching upon ATP binding; sequences stand for … in TCGTCGGCAGCGTCAGATGTGTATAAGAGACAGTTTTTTTTTTTTTTTTTTTTTTTTT…TC. To be noted: aptamer strand: ATP DNA aptamer (quencher-CACCTGGGGGAGTATTGCGGAGGAAGG + anchor), 100 nM annealed; ATP concentration: 500 uM. The gist of the method: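 For every switch-domain sequence, the fluorescence ratio is the mean of per-cluster values, each being summed target-cycle Cy3 intensity over summed buffer-cycle Cy3 intensity. Clusters outside 100-1000 RFU were excluded. On a modified Illumina MiSeq flow-cell, the Cy3-labelled switching-strand clusters were annealed to 100 nM quencher-labelled ATP aptamer, imaged in selection buffer and then after 15 min with 500 uM ATP at 22 °C. Five such cycles were run, with NaOH stripping and re-annealing between them.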

± gives the standard deviation of the averaged measurements.
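Note: ATP exposure 15 min at 22 °C before imaging.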

For TCGTTACAGG, the switch fluorescence ratio worked out at 1.045 ± 0.0051.

With TCGTTACCCT, the switch fluorescence ratio is 1.02 ± 0.011.

In the case of TCGTTACGGG, the switch fluorescence ratio was 1.17 ± 0.26.

TCGTTAGAGG: the switch fluorescence ratio was determined as 0.9718 ± 0.0073.

Take TCGTTATTCT: the switch fluorescence ratio was found to be 1.04 ± 0.067.

On to TCGTTCGCTA, for which the switch fluorescence ratio amounted to 3.15 ± 0.39.

For TCGTTCTGAA, the switch fluorescence ratio amounted to 0.974 ± 0.022.

Consider TCGTTGCGAG, for which the switch fluorescence ratio was 0.9898 ± 0.0096.

In the case of TCGTTGGGAC, the switch fluorescence ratio amounted to 0.979 ± 0.021.

Regarding TCGTTGGTCC, the switch fluorescence ratio was 1.026 ± 0.0048.

Consider TCGTTGGTTG, for which the switch fluorescence ratio came to 1.02 ± 0.051.

On to TCGTTTACAC, for which the switch fluorescence ratio turned out to be 1.01 ± 0.033.

TCGTTTACGC: the switch fluorescence ratio is 1.02 ± 0.08.

As for TCGTTTAGTG, the switch fluorescence ratio stood at 0.981 ± 0.018.

For the sequence TCGTTTATTT, the switch fluorescence ratio came out at 1.02 ± 0.014.

With TCGTTTCGCA, the switch fluorescence ratio came out at 1.11 ± 0.023.

For TCGTTTGGAA, the switch fluorescence ratio is 1 ± 0.025.

In the case of TCGTTTGGGC, the switch fluorescence ratio was found to be 1.02 ± 0.019.

For TCGTTTGGTG, the switch fluorescence ratio came out at 0.986 ± 0.045.

As for TCGTTTTAGC, the switch fluorescence ratio came to 1.004 ± 0.0032.

On to TCTAAAAGTG, for which the switch fluorescence ratio amounted to 0.9752 ± 0.0022.

With TCTAAAATTA, the switch fluorescence ratio was 1.007 ± 0.0046.

As for TCTAAATGTT, the switch fluorescence ratio was 0.985 ± 0.03.

With TCTAAGTCGG, the switch fluorescence ratio is 0.987 ± 0.015.

As to TCTAAGTCTT, the switch fluorescence ratio turned out to be 0.98 ± 0.042.

As for TCTACGAAGG, the switch fluorescence ratio was 1.034 ± 0.0012.

For the sequence TCTACGGGGG, the switch fluorescence ratio turned out to be 1.032 ± 0.0024.

Take TCTAGACGTC: the switch fluorescence ratio is 0.9972 ± 0.0081.

Turning to TCTAGGATGG, the switch fluorescence ratio stood at 0.962 ± 0.023.

TCTAGGGTGC: the switch fluorescence ratio was determined as 1.13 ± 0.042.

As for TCTATAAGGT, the switch fluorescence ratio came to 0.99 ± 0.022.

Regarding TCTATAGTAA, the switch fluorescence ratio is 1.057 ± 0.0087.

Regarding TCTATCCCAG, the switch fluorescence ratio amounted to 1.13 ± 0.092.

Take TCTATCTAGA: the switch fluorescence ratio was 0.988 ± 0.014.

As for TCTATGAGGG, the switch fluorescence ratio stood at 1.01 ± 0.023.

Regarding TCTATGCTTA, the switch fluorescence ratio was 1.01 ± 0.038.

Take TCTATTCTCC: the switch fluorescence ratio was 1.52 ± 0.72.

With TCTCAAGTGG, the switch fluorescence ratio stood at 0.992 ± 0.031.

In the case of TCTCAGCAAA, the switch fluorescence ratio was 3.38 ± 0.53.

Turning to TCTCAGTCAC, the switch fluorescence ratio turned out to be 1.08 ± 0.018.

For the sequence TCTCATGGAG, the switch fluorescence ratio stood at 1 ± 0.012.

Turning to TCTCCATTTA, the switch fluorescence ratio stood at 1.04 ± 0.015.

For the sequence TCTCCCGGCA, the switch fluorescence ratio worked out at 1.34 ± 0.2.

As for TCTCCCTTGT, the switch fluorescence ratio was 1.03 ± 0.024.

With TCTCCTTTTT, the switch fluorescence ratio is 1.02 ± 0.053.

TCTCGAGGGA: the switch fluorescence ratio was found to be 0.981 ± 0.01.

As to TCTCGGAAGA, the switch fluorescence ratio is 1.01 ± 0.022.

As for TCTCGGGATT, the switch fluorescence ratio amounted to 1 ± 0.013.

TCTCGTAACT: the switch fluorescence ratio was determined as 1 ± 0.044.

On to TCTCTACTGG, for which the switch fluorescence ratio turned out to be 1.03 ± 0.058.

Take TCTCTTATGT: the switch fluorescence ratio is 0.985 ± 0.033.

On to TCTCTTCAGC, for which the switch fluorescence ratio was 1 ± 0.0026.

For the sequence TCTCTTGCGG, the switch fluorescence ratio amounted to 1.1 ± 0.2.

Take TCTGAAAAAG: the switch fluorescence ratio amounted to 2.29 ± 1.9.

As for TCTGAAGATC, the switch fluorescence ratio is 1.06 ± 0.065.

For the sequence TCTGACAGTT, the switch fluorescence ratio was found to be 1.04 ± 0.029.

On to TCTGAGAGAG, for which the switch fluorescence ratio was found to be 0.9823 ± 0.0032.

For the sequence TCTGAGATAA, the switch fluorescence ratio worked out at 1.0208 ± 0.00085.

On to TCTGAGTCCA, for which the switch fluorescence ratio turned out to be 1.032 ± 0.0022.

In the case of TCTGAGTTCA, the switch fluorescence ratio came to 0.987 ± 0.019.

With TCTGATTATG, the switch fluorescence ratio is 0.987 ± 0.011.

As to TCTGATTTGG, the switch fluorescence ratio worked out at 0.978 ± 0.028.

TCTGCATGGT: the switch fluorescence ratio came out at 1.07 ± 0.013.

For TCTGCCCCCC, the switch fluorescence ratio is 1.12 ± 0.042.

Turning to TCTGCTCTGG, the switch fluorescence ratio was determined as 0.983 ± 0.03.

On to TCTGCTTGGG, for which the switch fluorescence ratio turned out to be 1.09 ± 0.13.

As for TCTGGAATTG, the switch fluorescence ratio stood at 1.01 ± 0.03.

TCTGGACATT: the switch fluorescence ratio turned out to be 1.01 ± 0.023.

Turning to TCTGGGAGGG, the switch fluorescence ratio is 1.03 ± 0.047.

On to TCTGGGCCAT, for which the switch fluorescence ratio came to 1.29 ± 0.43.

On to TCTGGGCTTG, for which the switch fluorescence ratio is 0.999 ± 0.015.

As to TCTGGGGCTT, the switch fluorescence ratio worked out at 1.0237 ± 0.00017.

Regarding TCTGGGGGAC, the switch fluorescence ratio amounted to 1.05 ± 0.015.

In the case of TCTGGGGGGT, the switch fluorescence ratio was determined as 1.02 ± 0.035.

Regarding TCTGGGGGTT, the switch fluorescence ratio worked out at 1.02 ± 0.054.

Consider TCTGGGTGGC, for which the switch fluorescence ratio stood at 0.996 ± 0.028.

With TCTGGGTTAT, the switch fluorescence ratio was determined as 0.988 ± 0.033.

With TCTGGTTGGA, the switch fluorescence ratio turned out to be 1.04 ± 0.025.

As to TCTGTAGCGG, the switch fluorescence ratio turned out to be 1.13 ± 0.037.

On to TCTGTATACA, for which the switch fluorescence ratio was determined as 0.989 ± 0.037.

Turning to TCTGTCTAGT, the switch fluorescence ratio came to 1.01 ± 0.02.

Turning to TCTGTGAGTG, the switch fluorescence ratio worked out at 0.973 ± 0.014.

Turning to TCTGTGCATA, the switch fluorescence ratio was determined as 1.52 ± 0.1.

On to TCTGTGGCCC, for which the switch fluorescence ratio came out at 1.01 ± 0.028.

In the case of TCTGTGGGGA, the switch fluorescence ratio came to 1.04 ± 0.045.

For the sequence TCTGTGTATT, the switch fluorescence ratio stood at 1.03 ± 0.037.

In the case of TCTGTTCA, the switch fluorescence ratio is 1.005 ± 0.0075.

In the case of TCTGTTTACG, the switch fluorescence ratio stood at 0.996 ± 0.016.

As for TCTGTTTTAT, the switch fluorescence ratio was 0.976 ± 0.017.

Consider TCTTAAAATT, for which the switch fluorescence ratio came to 1.012 ± 0.0091.

TCTTAAAGAT: the switch fluorescence ratio was determined as 1.06 ± 0.022.

Regarding TCTTAAAGGT, the switch fluorescence ratio was 0.986 ± 0.026.

As to TCTTAAGTGC, the switch fluorescence ratio is 1.07 ± 0.026.

TCTTACGCCA: the switch fluorescence ratio amounted to 1.06 ± 0.016.

TCTTATGCTC: the switch fluorescence ratio is 0.98 ± 0.022.

Regarding TCTTCCGGTG, the switch fluorescence ratio stood at 1.68 ± 0.045.

TCTTCCTAGA: the switch fluorescence ratio turned out to be 1.031 ± 0.01.

For TCTTCGGAGT, the switch fluorescence ratio is 1.03 ± 0.058.

With TCTTCGGGGG, the switch fluorescence ratio came out at 1.07 ± 0.032.

As for TCTTGAATAA, the switch fluorescence ratio came to 0.9856 ± 0.0072.

TCTTGAGCAT: the switch fluorescence ratio was determined as 1.34 ± 0.13.

In the case of TCTTGAGGGA, the switch fluorescence ratio is 1 ± 0.02.

Regarding TCTTGATGGA, the switch fluorescence ratio came out at 0.9597 ± 0.0014.

As to TCTTGCATAG, the switch fluorescence ratio turned out to be 1.11 ± 0.025.

Consider TCTTGGAACG, for which the switch fluorescence ratio amounted to 0.998 ± 0.015.

Consider TCTTGGACGA, for which the switch fluorescence ratio was determined as 0.991 ± 0.025.

TCTTGGGCAT: the switch fluorescence ratio stood at 1.01 ± 0.04.

TCTTGGGGAG: the switch fluorescence ratio stood at 0.9815 ± 0.0083.

Consider TCTTGGTTTC, for which the switch fluorescence ratio amounted to 0.997 ± 0.013.

For the sequence TCTTGTAAGT, the switch fluorescence ratio was 0.992 ± 0.023.

As to TCTTGTATAA, the switch fluorescence ratio worked out at 0.9758 ± 0.0029.

On to TCTTGTATAG, for which the switch fluorescence ratio came out at 0.966 ± 0.032.

Regarding TCTTGTTATT, the switch fluorescence ratio amounted to 0.9985 ± 0.0054.

Take TCTTGTTGGG: the switch fluorescence ratio was found to be 1.01 ± 0.023.

In the case of TCTTGTTTTT, the switch fluorescence ratio was 0.977 ± 0.022.

With TCTTTAATGG, the switch fluorescence ratio was 1.01 ± 0.042.

Take TCTTTATACT: the switch fluorescence ratio worked out at 1.05 ± 0.034.

For TCTTTATCCC, the switch fluorescence ratio was 1.18 ± 0.084.

For TCTTTCATGT, the switch fluorescence ratio is 1.02 ± 0.02.

TCTTTGAAGT: the switch fluorescence ratio was 1 ± 0.019.
